Assay results from patent publication US20230295305A1.

Biological target: biotinylated pHLA: HLA subtype A*02:01 complexed with … (HLA-PEPTIDE target G8) (human)
Assay: MSD U-PLEX, periplasmic extract on biotinylated pHLA; ratio of target signal to OTLA signal

Negative control (MSD screen) was tested, and the Average Target/OTLA was 1, the Target/OTLA 61 was 1 and the Target/OTLA 67 was 2. For the same substance, the Target/OTLA 246 was 1 and the Target/OTLA 250 was 1.
